The values below come from the nanobody polyreactivity screen of Harvey et al. (2022).

The nature of this series: yeast display, Sf9 membrane polyspecificity reagent, FACS + sequencing; frameworks hold sequencing errors. A digest of the protocol: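 Genes from sorted yeast were amplified by colony PCR, read by MiSeq 2 × 250 sequencing and filtered on CDR length. These cells carried a synthetic nanobody library in Saccharomyces cerevisiae BJ5465 and were sorted by FACS into low and high (top ~1%) gates on anti-HA and streptavidin fluorescence. Polyreactivity is labelled according to the gate of origin.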
In the case of “QVQLVESGGGLVQAGGSLRLSCAASGSTFGQNAMGWYRQAPGKERELVAAITRRGVSTYYADSVKGRFTISRDNAKNTVYLQMNSLKPEDTAVYYCAKRYHPNSPYDYWGQGTQVTVSS”, the “polyreactivity (PSR sort gate)” value is “low polyreactivity”.
Turning to “QVQLVESGGGLVQAGGSLRLSCAASGSTFGQYVMGWYRQAPGKERELVAAISSADSTNYADSVKGRFTISRDNAKNTVYLQMNSLKPEDTAVYYCAAARRPTYWPVYPYFGYEYWGQGTQVTVSS”, the “polyreactivity (PSR sort gate)” value is “low polyreactivity”.
As for “QVQLVESGGGLVQAGGSLRLSCAASGSTFGRNALGWYRQAPGKERELVASISWGGGSTYYADSVKGRFTISRDNSKNTVYLQMNSLKTEDTAVYYCNARRFLWSQLSGSFSYDYWGQGTQVTVSS”, the entry is “high polyreactivity”.
As to “QVQLVESGGGLVQAGGSLRLSCAASGSTFGRNAMGWYRQAPGKERELVAAINWSDGSTHYADSVKGRFTISRDNAKNTVYLQMNSLKPEDTAVYYCGADAWSWPVDYNYWGQGTQVTVSS”, the “polyreactivity (PSR sort gate)” value is “low polyreactivity”.
For “QVQLVESGGGLVQAGGSLRLSCAASGSTFGRNTMGWYRQAPGKERELVAAITSCDTTTYADSVKGRFTISLDNAKNTVYIQMNSLKPEDTAVYYCAVDPVRGLDYSWMDYWGQGTQVTVSS”, the “polyreactivity (PSR sort gate)” value is reported as “low polyreactivity”.
Regarding “QVQLVESGGGLVQAGGSLRLSCAASGSTFGRYAMGWYRQAPGKERELVAAIDWSGGSTYYADSVKGRFTISRDNAKNTVYLQMNSLKPEDTAVYYCAAEAYSQYRTPGFDYYYWGQGTQVTVSS”, the “polyreactivity (PSR sort gate)” value is on record as “high polyreactivity”.
With “QVQLVESGGGLVQAGGSLRLSCAASGSTFGRYAMGWYRQAPGKERELVAAISKSGGSTYYADSVKGRFTISRDNEKNTVYLQMNSLNPEDTAVYYCAATTTRYSYEYWGQGTQVTVSS”, the “polyreactivity (PSR sort gate)” value is on record as “low polyreactivity”.
Take “QVQLVESGGGLVQAGGSLRLSCAASGSTFGRYAMGWYRQAPGKERELVAAITRSGGRTYYADSVKGRFTISRDNAKNTVYLQLNSLKPEDTAVYYCAAVGNLYYTSHWQYDYWGQGTQVTVSS”: the “polyreactivity (PSR sort gate)” value is “high polyreactivity”.
In the case of “QVQLVESGGGLVQAGGSLRLSCAASGSTFGSNAMGWYRQAPGKEREWVAAISWTGGSTYYADSVKGRFTISRDKAKNPVYVHMNSLKPEETAVYYCNDYGYGYPLYRYDYWGQGTQVTVSS”, the “polyreactivity (PSR sort gate)” value is listed as “low polyreactivity”.
For the sequence “QVQLVESGGGLVQAGGSLRLSCAASGSTFGSNAMGWYRQAPGKESELVAAIRWSGGSTYYADSVKGRFTISRDNAKNTVYLQMNSLKPEDTAVYYCNAVYGRQYRGYNYKYYYWGQGTQVTVSS”, the “polyreactivity (PSR sort gate)” value is “high polyreactivity”.
With “QVQLVESGGGLVQAGGSLRLSCAASGSTFGSYAMGWYRHAPGKERELVAAINGGSSTNYADSVKGRFTISRDNAKNTVYLQMNSLKPEDTAVYYCNATETHRLYDSWGQGTQVTVSS”, the “polyreactivity (PSR sort gate)” value is listed as “low polyreactivity”.
For the sequence “QVQLVESGGGLVQAGGSLRLSCAASGSTFGSYAMGWYRQAPGKERELVAAISGRGGRTSYADSVKGRFTISRDNAKNTVYLQMNSLKPQDTAVYYCAAKRGGLGVTAASLYDYYFWGQGTQVTVSS”, the “polyreactivity (PSR sort gate)” value was “high polyreactivity”.
Regarding “QVQLVESGGGLVQAGGSLRLSCAASGSTFGSYAMGWYRQAPGKERELVAAITASGGSTYYADSVKGRFTISRDNGKNTVYLQMKSLKPEDTAVYYCAADTTYIPLSIEYDYWGQGTQVTVSS”, the “polyreactivity (PSR sort gate)” value is “low polyreactivity”.
Turning to “QVQLVESGGGLVQAGGSLRLSCAASGSTFGSYAMGWYRQAPGKERELVAAITTSGSSTYYADSVKGRFTISRDNAKNTVYLQMNSLKPEDTAVYYCNARPRRLSYSSYNYWGQGTQVTVSS”, the “polyreactivity (PSR sort gate)” value is “high polyreactivity”.
Take “QVQLVESGGGLVQAGGSLRLSCAASGSTFGTYAMGWYRQAPGKERELVAAITRSGGSTYYADSVKGRFTISRDNAKNTVYLQKNSLKPEDTAVYYCAKYVFSYPQSYAYYYWGHGTQVTVSS”: the “polyreactivity (PSR sort gate)” value is reported as “high polyreactivity”.
Regarding “QVQLVESGGGLVQAGGSLRLSCAASGSTFGTYAMGWYRQAPGKERELVAAITRSGGSTYYADSVKGRFTISRDNAKNTVYLQMNSLKPEDTAVYYCAAVSKGYYYWGQGTQVTVSS”, the “polyreactivity (PSR sort gate)” value is on record as “high polyreactivity”.
For the sequence “QVQLVESGGGLVQAGGSLRLSCAASGSTFGTYAMGWYRQAPGKERELVATITRRGGRTYYADSVKGRFTISRDNAKNTVYLQMNSLKPEDTAVYYCNAVVRQQGAYDYWGQGTQVTVSS”, the “polyreactivity (PSR sort gate)” value is “high polyreactivity”.
Take “QVQLVESGGGLVQAGGSLRLSCAASGSTFGTYVMGWYRQAPGKERELVAAITYSGGSTYYADSVTGRFTISRDNAKNTVYLQMNSLKPEDTAVYYCNADVWSYWYKFDYWGQGTQVTVSS”: the “polyreactivity (PSR sort gate)” value was “high polyreactivity”.
Take “QVQLVESGGGLVQAGGSLRLSCAASGSTFGVNAMGWYRQAPGKERELVAAISWSGGSTYYADSVKGRFTISRDNAKNTVYLQMNSLKPEDTAVYYCAADFDYGIWGRYEYWGQGTQVTVSS”: the “polyreactivity (PSR sort gate)” value is “high polyreactivity”.
In the case of “QVQLVESGGGLVQAGGSLRLSCAASGSTFGVNAMVWYRQAPGKERELVAGISVDDSTTYYADSVKGRFTISRDNAKNTVYLQMNSLKPEDTAVYYCAAEREKTLYYLSRFDYWGQGTQVTVSS” it was “low polyreactivity”; in that of “QVQLVESGGGLVQAGGSLRLSCAASGSTFGVNVMGWYRQAPGKERELVAAISRSGGRTYYADSVKGRFTISRDNAKNTVYLQMNSLKPEDTAVYYCNTRGYDYWGQGTQVTVSS”, “high polyreactivity”.
Regarding “QVQLVESGGGLVQAGGSLRLSCAASGSTFGVYAMGWYRQAPGKERELVAAISWSSGSTYYADSVKGRFTISRDNAKNTVYLQLNSLKPEDTAVYYCNKDVYGYYRTGPRGYDYWGQGTQVTVSS”, the “polyreactivity (PSR sort gate)” value was “high polyreactivity”.
As for “QVQLVESGGGLVQAGGSLRLSCAASGSTFGVYTMGWYIQAPGKERELVAAITKSGGSTYYADSVKGRFTISRDNAKNTVYLQMNSLKPEDTAVYYCNTDYGRYLYYRYGYWGQGTQVTVSS”, the entry is “low polyreactivity”; as for “QVQLVESGGGLVQAGGSLRLSCAASGSTFGWNAMGRYRQAPGKERELVAAISSSGGSTNYADSVKGRFTISRDNAKNTVYLQMTSLKPEDTAVYYCAKARRPGYGYGYWGQGTQLTVSS”, “low polyreactivity”.
Regarding “QVQLVESGGGLVQAGGSLRLSCAASGSTFGWYAMGWYRQAPGKERELVAAISYIGGSTYADSVKGRFTISRDNAKNTVYLQMKSLKPEDTAVYYCNAVVYGKSYGSRIYDYWGQGTQVTVSS”, the “polyreactivity (PSR sort gate)” value is “high polyreactivity”.
As for “QVQLVESGGGLVQAGGSLRLSCAASGSTFGWYAMGWYRQAPGKERELVAAITSVGSTYYADYVKGRFTISRDNAKNTVYLQMNSLKPEDTAVYYCANRFGYGWAWFGYWGQGTQVTVSS”, the entry is “low polyreactivity”.
For the sequence “QVQLVESGGGLVQAGGSLRLSCAASGSTFGWYAMVWYRQAPGKERELVAAIRNNDGRTYYADSVKGRFTISRDNAKNTVYLQMNSLKPEDTAVYYCNADYRSHYLYDYWGQGTQVTVSS”, the “polyreactivity (PSR sort gate)” value is recorded as “low polyreactivity”.
Take “QVQLVESGGGLVQAGGSLRLSCAASGSTFGYAMGWYRQAPGKERELVAAITSTGGSTYYADSVKGRFTISRDNAKNTVYLQKNSLKPEDTAVYDCAADAYWIRSRFLYRMRSNSWGQGTQVTVSS”: the “polyreactivity (PSR sort gate)” value is given as “high polyreactivity”.
Turning to “QVQLVESGGGLVQAGGSLRLSCAASGSTFGYNAMGCYRQAPGKERELVAAISRSGGRTYYADSVKGRFTISRDNAKNTVYLQMNSLIPEDTAVYYCATYYTNKVPARYYWGQGTQVTVSS”, the “polyreactivity (PSR sort gate)” value was “high polyreactivity”.
Turning to “QVQLVESGGGLVQAGGSLRLSCAASGSTFGYNAMGGYRQAPGKERELVAAITWTGASTYYADSVKGRFTISRDNAKNTVYLQMNSLKPEDTAVYYCNLVGYQSMNYWGQGTQVTVSS”, the “polyreactivity (PSR sort gate)” value is recorded as “low polyreactivity”.
Regarding “QVQLVESGGGLVQAGGSLRLSCAASGSTFGYNAMGWYRQAPGKERELVAAISRSGGRTYYADSVKGRFTISRDNAKNTVYLQMNSLKPEDTAVYFCATYYTNKVPARYYWGQGTQVTVSS”, the “polyreactivity (PSR sort gate)” value is listed as “high polyreactivity”.
As to “QVQLVESGGGLVQAGGSLRLSCAASGSTFGYNTMGWYRQAPGKERELVASITGRGGSTYYADSVKGRFTSSRDNAKNTVYLQMNSLKPEDTAVYYCAAAWKAYRRYGYWGQGTQVTVSS”, the “polyreactivity (PSR sort gate)” value is recorded as “high polyreactivity”.
Regarding “QVQLVESGGGLVQAGGSLRLSCAASGSTFGYYAMGWYRHAHGKERELVAAITGSVDSTYYADSVKGRFTISRDNAKNTVYLQMNSLKPEDTAVYYCAADTYSTYWGQGTQVTVSS”, the “polyreactivity (PSR sort gate)” value was “low polyreactivity”.
Take “QVQLVESGGGLVQAGGSLRLSCAASGSTFGYYAMGWYRHAPGKERELVAAISWRGGSTYYADSVKGRYTISRDNAKNTVYLQMISLKPEDTAVYYCAAPVGNYGSFDYWGQGTQVTVSS”: the “polyreactivity (PSR sort gate)” value was “low polyreactivity”.
Turning to “QVQLVESGGGLVQAGGSLRLSCAASGSTFGYYAMGWYRQAHGKERELVAAITSGGSTNYADSVKGRFTISRDNAKNTVYLQMNSLKPEDTAVYYCAAADSYRYHLRRYNYWGQGTQVTVSS”, the “polyreactivity (PSR sort gate)” value is given as “low polyreactivity”.
As for “QVQLVESGGGLVQAGGSLRLSCAASGSTFGYYAMGWYRQAPGKERELVAAISYRSGSTYYADSVNGRFTISRDNAKNTVYLQMNSLKPEDTAVYYCAPVIQRQQRYEYWGQGTQVTVSS”, the entry is “high polyreactivity”; as for “QVQLVESGGGLVQAGGSLRLSCAASGSTFGYYAMGWYRQAPGKERELVAAITGSGGCTYYADSVKGRFTISRDNAKNTVYLQMNSLKPEDTAVYYCATPTKFVRDDYWGQGTQVTVSS”, “low polyreactivity”.
“QVQLVESGGGLVQAGGSLRLSCAASGSTFGYYAMGWYRQAPGKERELVAAITRGASTYYADSVNGRFTISRDNAKNTVYLQMNSLKPDDTAVYYCAFDTWKVQGASSRYRKMYYWGQGTQVTVSS”: the “polyreactivity (PSR sort gate)” value is on record as “low polyreactivity”.
“QVQLVESGGGLVQAGGSLRLSCAASGSTFGYYAMGWYRQAPGKERELVASITWGGGSTYYADSVKGRFTISRDNAKNTVYLQMNSLNPEDTAVYYCAATILGGTWGYGSYTYYYWGQGTQVTVSS”: the “polyreactivity (PSR sort gate)” value was “low polyreactivity”.
Turning to “QVQLVESGGGLVQAGGSLRLSCAASGSTFGYYAMGWYRQAPGKERELVATMSATGGSTYYADSVKGRFTISRDKAKNTVYLQMNSLKPEDTAVYYCNAEYDRGNEYDYWGQGTQVTVSS”, the “polyreactivity (PSR sort gate)” value is listed as “low polyreactivity”.
For the sequence “QVQLVESGGGLVQAGGSLRLSCAASGSTFGYYAMGWYRQAPGKERELVAVITRGGSTYYADSVKGRFTISRDNAKNTVYLQLNSLKPEDTAVYYCNARVQAVHYGYWGQGTQVTVSS”, the “polyreactivity (PSR sort gate)” value is reported as “high polyreactivity”.
